# Reference: patent US20180265915A1, “TRANSCRIPTION FACTOR DECOYS” (priority 2008, published 2018)
# Key:
# S. aureus = assay: Quantification of TFD number by real-time qPCR; type: cell-based, Staphylococcus aureus; details: in the presence of the transfection reagents; BHI
# Protocol: Cells from individual wells were washed twice in PBS (phosphate buffered saline) and resuspended in 100 μl water. 1 μl of each sample was used in each qPCR reaction, mixing DNA standards or samples with primers to either amplify the TFD (Tef and Ter; SEQ ID NOs 1 & 2) or 16S rRNA (stypF, 5′-ACGGTCTTGCTGTCACTTATA-3′ (SEQ ID NO: 36); stypR, 5′-TACACATATGTTCTTCCCTAATAA-3′ (SEQ ID NO: 37)) in 12.5 ul of SYBR Green DNA mix supplemented with 0.5 μl of ROX (Invitrogen). The resultant data was used to calculate the number of TFDs present per genome.
# K. pneumoniae [1] = assay: KP_Sig TFD growth assay in vitro; type: cell-based, Klebsiella pneumoniae; details: PCR_TFD, transfected using a cell penetrating peptide
# Description: Cells were transfected as described in Example 13, using a cell penetrating peptide. […] The two controls used were: untreated cells (K. pneumoniae) and a control TFD consisting of a scrambled sequence.
# S. aureus ATCC 6538NA = assay: Fur TFD growth assay in non-iron-limiting and iron-limiting media; type: cell-based, Staphylococcus aureus; details: 1 nM TFD; DOTAP, 60 nM gramicidin
# Protocol: S. aureus ATCC 6538NA cultures were grown and maintained in BHI media (Becton Dickenson). Frozen stocks were prepared by mixing equal volumes of a culture in early exponential growth (OD of 0.3 at A600) with 50% glycerol and freezing at −80° C. BHI was the media used for non-iron limiting conditions and NRPMI, which had been prepared as previously described (Skaar et al. 2004), for iron-limiting growth conditions.
# A stock solution of gramicidin (Sigma) was freshly prepared by dissolving 21 mg in 1 ml methanol, diluted prior to use in water and further diluting 1/100 in growth medium to give a final concentration of 60 nM. Supplemented media was inoculated 1/100 with the frozen S. aureus stock and incubated at room temperature for 10 min. TFD-DOTAP complexes were formed by mixing 1 ug of TFD with 2 μg of DOTAP (Roche) and incubating at room temperature for 10 min on the bench. The TFD complex was then mixed with inoculated medium, aliquoted into 96 well flat-bottomed plates and growth was analysed by culturing at 37° C. with shaking in a BioTek plate reader.
# To achieve transfection, TFDs were mixed with the commercially available lipid preparation DOTAP to form a stable complex and shield the negative charge of the phosphate backbone. The TFD-DOTAP complex was then mixed with S. aureus in BHI, a non-iron limiting medium, which had been supplemented with 60 nM gramicidin. […]
# [2] = system: clinically-isolated MRSA strain MRSA-5; assay: Dumbbell Sig TFD growth assay on a clinically-isolated MRSA strain; type: cell-based, Staphylococcus aureus; details: 10 nM TFD, dumbbell configuration
# Protocol: A growth assay was performed as described in Example 5.1 using the Sig TFD in its dumbbell configuration and a clinically-isolated MRSA strain.
# K. pneumoniae [3] = assay: Sigma 54 TFD growth assay, cell penetrating peptide transfection; type: cell-based, Klebsiella pneumoniae; details: 10 nM TFD; M9 media; complexed with cell penetrating peptide
# Protocol: Growth assays were performed as described in Section 4.1 with the difference being that the media used was M9 media (Sambrook et al (1989) Molecular Cloning. 2nd Edition vol. 3 p.A3). The media was not supplemented with any co-transfectant.
# Transfection was achieved by complexing the TFD with a cell penetrating peptide. The peptide consisted of two portions: a linear chain of nine D-arginines and a previously described peptide sequence found to be capable of penetrating the membrane of K. pneumoniae (Vaara, Antimicrobial Agents and Chemotherapy (1996) 40:1801). The positively charged arginines (R9) serve to bind the phosphate backbone of the TFD through a charge interaction. The use of such R9 tails to complex transfecting moieties to transfect bacteria has been described previously (Kim, Molecular Therapy (2006) 14:343). The entire sequence of the peptide used was:
# TFDs were mixed with increasing amounts of IKFLKFLKKL-R9 peptide in a TE based buffer supplemented with 5% glucose. The mixture was incubated at room temperature for 1 hour and then either used directly in transfections or analysed by agarose gel electrophoresis. Typically the minimum amount of IKFLKFLKKL-R9 was used that caused the complex with DNA not to run in the gel; i.e. the charge of the nucleic acid backbone had been neutralised by binding of poly-arginine. […]
# [4] = system: methicillin-resistant strains (MRSA); assay: Sig TFD growth assay on MRSA clinical isolates; type: cell-based, Staphylococcus aureus; details: 10 nM TFD; DOTAP, 60 nM Gramicidin
# Protocol: Cholesterol/Cy5-labeled decoy polynucleotides were prepared as in Example 5.1. Typically 1 μg of Sig TFD was then complexed with 0.3 μl of the liposomal transfection reagent DOTAP (1,2-dioleoyl-3-trimethylammonium propane; Roche) and incubated at room temperature for 10 min. The assays to determine their effect on growth of bacterial cells were performed using 96 well plates, each well containing 200 μl of broth consisting of BHI media (Becton Dickinson) supplemented with 60 nM Gramicidin (Sigma Corporation. Cat# G5002). 1 μl of various concentrations of a Cholesterol/Cy5-labeled decoy complexed with TFD were added to each well and the effect on bacterial growth of clinical isolates of S. aureus that had been determined to be methicillin-resistant strains (MRSA) was monitored. Growth was monitored by measuring absorbance of the broth at time intervals during incubation. The plates were incubated at 37° C. with shaking and absorbance readings (at 450 nM) were taken using a plate reader.
# EMRSA15 = assay: Lag-time growth assay with antibiotics on EMRSA15; type: cell-based, Staphylococcus aureus; details: 10 nM TFD
# Protocol: Sig dumbbell TFD was prepared as described in Example 9.1 (see below). A growth assay was carried out as described in Example 5.2 with a well-characterised MRSA strain, EMRSA15.
# For the cultures treated with the Sig TFD, the lag-time is the delay in growth compared to that seen with the Control TFD in the presence of antibiotic.
# Lagtime is defined as the time that growth is delayed (in comparison to a mock-transfected culture) due to treatment of the TFD.
molecule,measurement,setting,value
"Control TFD: unrelated sequence of similar nucleotide composition that does not occur in the S. aureus genome, SEQ ID NOs: 34 & 35 (nucleic acid, listed as Mycobacterium smegmatis, further chemistry not given here) chain 1: TGGCCACGGATCCGGGTGACTGCGGGTCCGTA chain 2: ACGGACCCGCAGTCACCCGGATCCGTGGCCAA",number of TFDs detected per genome,S. aureus,5340 TFDs per genome
same,effect on K. pneumoniae cell growth in vitro,K. pneumoniae [1],no effect on cell growth
same,"growth of S. aureus in BHI, non-iron limiting medium",S. aureus ATCC 6538NA,reduction of the S. aureus growth rate
same,inhibition of cell growth of clinically-isolated MRSA strain,[2],could not
same,inhibition of growth of K. pneumoniae culture,K. pneumoniae [3],no inhibition was seen
same,effect on growth of MRSA strains in BHI medium,[4],no effect on bacterial growth
same,Lagtime,EMRSA15; Ciprofloxacin 0.5 mg/L (text: 0.5 mg/ml),0.3 h
same,Lagtime,EMRSA15; Erythromycin 0.5 mg/L (text: 0.5 mg/ml),-0.3 h
same,Lagtime,EMRSA15; Methicillin 2 mg/L (text: 2 mg/ml),0.2 h
